# From patent US20170266254A1 (AILERON THERAPEUTICS, published 2017)
# Bridges are numbered along the chain shown (N, C = ends). [ ]: non-standard residue; d: D form. S5 = C=CCCC[C@](C)(N)C(=O)O
# T1: C-terminally 6x Histidine-tagged Beta-Catenin (aa 134-668, 59 KD) (UniProt P35222 134-668)
# T1 construct: range 134-668; Armadillo repeat region
# T1 sequence: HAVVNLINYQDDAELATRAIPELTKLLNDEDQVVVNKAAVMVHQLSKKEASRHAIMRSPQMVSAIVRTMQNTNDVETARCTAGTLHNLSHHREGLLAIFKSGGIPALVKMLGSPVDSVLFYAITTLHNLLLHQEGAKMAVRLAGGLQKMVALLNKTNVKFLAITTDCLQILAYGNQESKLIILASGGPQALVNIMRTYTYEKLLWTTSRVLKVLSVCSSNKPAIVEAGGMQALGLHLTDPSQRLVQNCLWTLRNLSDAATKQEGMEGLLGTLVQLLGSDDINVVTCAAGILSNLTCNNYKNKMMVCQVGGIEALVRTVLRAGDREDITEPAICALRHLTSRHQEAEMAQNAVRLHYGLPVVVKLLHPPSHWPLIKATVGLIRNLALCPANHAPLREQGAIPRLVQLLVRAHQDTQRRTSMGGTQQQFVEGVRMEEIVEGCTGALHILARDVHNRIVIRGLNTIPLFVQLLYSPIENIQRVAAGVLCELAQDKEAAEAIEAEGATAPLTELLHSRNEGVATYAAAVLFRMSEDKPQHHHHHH
# Biological target: T1, C-terminally 6x Histidine-tagged …
# Test: competitive fluorescence polarization, FAM-labelled linear probe as competitor, His-tagged beta-catenin 134-668
# Protocol: The following experiments are performed at room temperature unless otherwise noted. First, an assay buffer is prepared composed of 25 mM Tris-Hcl pH 7.5, 200 mM Sodium Chloride, and 5 mM CHAPS. Next, 1M DTT is added to assay buffer to a final concentration of 2 mM. […] Forty μl of this protein stock is added to all but six wells of a 96 well plate (which will serve as the free peptide and Blank). Test competitor peptides are diluted from 1 mM DMSO stocks to 2× working stocks in assay buffer. Further dilutions are made in assay buffer-DMSO as to maintain a constant DMSO concentration in all wells. The dilution is carried out such that the peptides have a working concentration range of 40 μM-0.7 μM (2×). As a benchmark, a linear, non-crosslinked peptide competitor is prepared as above but with a working concentration range of 13-0.7 μM. Fifty μl of the competitor 2× stocks are added to the 40 μl of protein solution previously transferred into the assay 96 well plate. Next, a 10× stock of the fluorescent probe is prepared. The probe is identical to the linear benchmark peptide except for the n-terminal conjugation of a FAM flourophore with Beta-Alanine spacer. A 1 mM DMSO stock of the probe is serially diluted to a final concentration of 25 nM (10×) and 10 μl of this stock is added to all wells except for those that will serve as the blank. The assay plate is stored in the dark and the reaction is allowed to run at room temperature for three hours. The reaction is then read on a Biotek Synergy 2 with the following settings: 100 ms delay, 40 measurements per well, with excitation filters of […], and emission filters of […]. Data is then analyzed in Graphpad Prism.
row,Binder,IC50 [nM]
1,"LGANDELISFADEGAQEEKSSNNSSAEADLAAVKSSLV (not fully specified; N-terminal acetyl; C-terminal amide; $ = (S)-alpha-(2'-pentenyl)alanine at positions 11 and 15 (first crosslink) and 28 and 32 (second crosslink), each pair joined by an all-carbon crosslinker with one double bond) [SP38]",83
2,"Ac-LGANDELISF[S5]DEG[S5]QQQKSSENSSA[S5]RDL[S5]NVKSSLV-NH2 (staple 11-15, 27-31; SMILES CC[C@H](C)[C@H](NC(=O)[C@H](CC(C)C)NC(=O)[C@H](CCC(=O)O)NC(=O)[C@H](CC(=O)O)NC(=O)[C@H](CC(N)=O)NC(=O)[C@H](C)NC(=O)CNC(=O)[C@H](CC(C)C)NC(C)=O)C(=O)N[C@@H](CO)C(=O)N[C@@H](Cc1ccccc1)C(=O)N[C@@]1(C)CCCC=CCCC[C@@](C)(C(=O)N[C@@H](CCC(N)=O)C(=O)N[C@@H](CCC(N)=O)C(=O)N[C@@H](CCC(N)=O)C(=O)N[C@@H](CCCCN)C(=O)N[C@@H](CO)C(=O)N[C@@H](CO)C(=O)N[C@@H](CCC(=O)O)C(=O)N[C@@H](CC(N)=O)C(=O)N[C@@H](CO)C(=O)N[C@@H](CO)C(=O)N[C@@H](C)C(=O)N[C@@]2(C)CCCC=CCCC[C@@](C)(C(=O)N[C@@H](CC(N)=O)C(=O)N[C@H](C(=O)N[C@@H](CCCCN)C(=O)N[C@@H](CO)C(=O)N[C@@H](CO)C(=O)N[C@@H](CC(C)C)C(=O)N[C@H](C(N)=O)C(C)C)C(C)C)NC(=O)[C@H](CC(C)C)NC(=O)[C@H](CC(=O)O)NC(=O)[C@H](CCCNC(=N)N)NC2=O)NC(=O)CNC(=O)[C@H](CCC(=O)O)NC(=O)[C@H](CC(=O)O)NC1=O) [SP49]",1650
3,"Ac-LGANDELISF[S5]NQG[S5]QAAKSSNNSSA[S5]RNL[S5]AVKSSLV-NH2 (staple 11-15, 27-31; SMILES CC[C@H](C)[C@H](NC(=O)[C@H](CC(C)C)NC(=O)[C@H](CCC(=O)O)NC(=O)[C@H](CC(=O)O)NC(=O)[C@H](CC(N)=O)NC(=O)[C@H](C)NC(=O)CNC(=O)[C@H](CC(C)C)NC(C)=O)C(=O)N[C@@H](CO)C(=O)N[C@@H](Cc1ccccc1)C(=O)N[C@@]1(C)CCCC=CCCC[C@@](C)(C(=O)N[C@@H](CCC(N)=O)C(=O)N[C@@H](C)C(=O)N[C@@H](C)C(=O)N[C@@H](CCCCN)C(=O)N[C@@H](CO)C(=O)N[C@@H](CO)C(=O)N[C@@H](CC(N)=O)C(=O)N[C@@H](CC(N)=O)C(=O)N[C@@H](CO)C(=O)N[C@@H](CO)C(=O)N[C@@H](C)C(=O)N[C@@]2(C)CCCC=CCCC[C@@](C)(C(=O)N[C@@H](C)C(=O)N[C@H](C(=O)N[C@@H](CCCCN)C(=O)N[C@@H](CO)C(=O)N[C@@H](CO)C(=O)N[C@@H](CC(C)C)C(=O)N[C@H](C(N)=O)C(C)C)C(C)C)NC(=O)[C@H](CC(C)C)NC(=O)[C@H](CC(N)=O)NC(=O)[C@H](CCCNC(=N)N)NC2=O)NC(=O)CNC(=O)[C@H](CCC(N)=O)NC(=O)[C@H](CC(N)=O)NC1=O) [SP60]",≥ 100000
4,"LGANDELISFANQGAQEEKSSNNSSAARNLADVKSSLV (not fully specified; N-terminal acetyl; C-terminal amide; $ = (S)-alpha-(2'-pentenyl)alanine at positions 11 and 15 (first crosslink) and 27 and 31 (second crosslink), each pair joined by an all-carbon crosslinker with one double bond) [SP57]",407
5,"Ac-LGANDELLSF[S5]DEG[S5]QQEKSSENSSA[S5]RDL[S5]NVKSSLV-NH2 (staple 11-15, 27-31; SMILES CC(=O)N[C@@H](CC(C)C)C(=O)NCC(=O)N[C@@H](C)C(=O)N[C@@H](CC(N)=O)C(=O)N[C@@H](CC(=O)O)C(=O)N[C@@H](CCC(=O)O)C(=O)N[C@@H](CC(C)C)C(=O)N[C@@H](CC(C)C)C(=O)N[C@@H](CO)C(=O)N[C@@H](Cc1ccccc1)C(=O)N[C@@]1(C)CCCC=CCCC[C@@](C)(C(=O)N[C@@H](CCC(N)=O)C(=O)N[C@@H](CCC(N)=O)C(=O)N[C@@H](CCC(=O)O)C(=O)N[C@@H](CCCCN)C(=O)N[C@@H](CO)C(=O)N[C@@H](CO)C(=O)N[C@@H](CCC(=O)O)C(=O)N[C@@H](CC(N)=O)C(=O)N[C@@H](CO)C(=O)N[C@@H](CO)C(=O)N[C@@H](C)C(=O)N[C@@]2(C)CCCC=CCCC[C@@](C)(C(=O)N[C@@H](CC(N)=O)C(=O)N[C@H](C(=O)N[C@@H](CCCCN)C(=O)N[C@@H](CO)C(=O)N[C@@H](CO)C(=O)N[C@@H](CC(C)C)C(=O)N[C@H](C(N)=O)C(C)C)C(C)C)NC(=O)[C@H](CC(C)C)NC(=O)[C@H](CC(=O)O)NC(=O)[C@H](CCCNC(=N)N)NC2=O)NC(=O)CNC(=O)[C@H](CCC(=O)O)NC(=O)[C@H](CC(=O)O)NC1=O) [SP58]",324
6,"Ac-LGANDELISF[S5]DEG[S5]QEEKSSENSSA[S5]RDL[S5]NVKSSLV-NH2 (staple 11-15, 27-31; SMILES CC[C@H](C)[C@H](NC(=O)[C@H](CC(C)C)NC(=O)[C@H](CCC(=O)O)NC(=O)[C@H](CC(=O)O)NC(=O)[C@H](CC(N)=O)NC(=O)[C@H](C)NC(=O)CNC(=O)[C@H](CC(C)C)NC(C)=O)C(=O)N[C@@H](CO)C(=O)N[C@@H](Cc1ccccc1)C(=O)N[C@@]1(C)CCCC=CCCC[C@@](C)(C(=O)N[C@@H](CCC(N)=O)C(=O)N[C@@H](CCC(=O)O)C(=O)N[C@@H](CCC(=O)O)C(=O)N[C@@H](CCCCN)C(=O)N[C@@H](CO)C(=O)N[C@@H](CO)C(=O)N[C@@H](CCC(=O)O)C(=O)N[C@@H](CC(N)=O)C(=O)N[C@@H](CO)C(=O)N[C@@H](CO)C(=O)N[C@@H](C)C(=O)N[C@@]2(C)CCCC=CCCC[C@@](C)(C(=O)N[C@@H](CC(N)=O)C(=O)N[C@H](C(=O)N[C@@H](CCCCN)C(=O)N[C@@H](CO)C(=O)N[C@@H](CO)C(=O)N[C@@H](CC(C)C)C(=O)N[C@H](C(N)=O)C(C)C)C(C)C)NC(=O)[C@H](CC(C)C)NC(=O)[C@H](CC(=O)O)NC(=O)[C@H](CCCNC(=N)N)NC2=O)NC(=O)CNC(=O)[C@H](CCC(=O)O)NC(=O)[C@H](CC(=O)O)NC1=O) [SP47]",176
7,"Ac-LGANDELISF[S5]DQG[S5]QEQKSSENSSA[S5]RDL[S5]NVKSSLV-NH2 (staple 11-15, 27-31; SMILES CC[C@H](C)[C@H](NC(=O)[C@H](CC(C)C)NC(=O)[C@H](CCC(=O)O)NC(=O)[C@H](CC(=O)O)NC(=O)[C@H](CC(N)=O)NC(=O)[C@H](C)NC(=O)CNC(=O)[C@H](CC(C)C)NC(C)=O)C(=O)N[C@@H](CO)C(=O)N[C@@H](Cc1ccccc1)C(=O)N[C@@]1(C)CCCC=CCCC[C@@](C)(C(=O)N[C@@H](CCC(N)=O)C(=O)N[C@@H](CCC(=O)O)C(=O)N[C@@H](CCC(N)=O)C(=O)N[C@@H](CCCCN)C(=O)N[C@@H](CO)C(=O)N[C@@H](CO)C(=O)N[C@@H](CCC(=O)O)C(=O)N[C@@H](CC(N)=O)C(=O)N[C@@H](CO)C(=O)N[C@@H](CO)C(=O)N[C@@H](C)C(=O)N[C@@]2(C)CCCC=CCCC[C@@](C)(C(=O)N[C@@H](CC(N)=O)C(=O)N[C@H](C(=O)N[C@@H](CCCCN)C(=O)N[C@@H](CO)C(=O)N[C@@H](CO)C(=O)N[C@@H](CC(C)C)C(=O)N[C@H](C(N)=O)C(C)C)C(C)C)NC(=O)[C@H](CC(C)C)NC(=O)[C@H](CC(=O)O)NC(=O)[C@H](CCCNC(=N)N)NC2=O)NC(=O)CNC(=O)[C@H](CCC(N)=O)NC(=O)[C@H](CC(=O)O)NC1=O) [SP48]",461
8,"LGANDELISFADEGAQEEKSSNNSSAARDLAAVKSSLV (not fully specified; N-terminal acetyl; C-terminal amide; $ = (S)-alpha-(2'-pentenyl)alanine at positions 11 and 15 (first crosslink) and 27 and 31 (second crosslink), each pair joined by an all-carbon crosslinker with one double bond) [SP59]",300
